{"source": "patent US10159707B2", "about": "“Treatment of cancers with immunostimulatory HIV Tat derivative polypeptides” (PIN Pharma, Inc., priority 2013, dated 2018)", "molecules": {"B1": {"name": "Nani-P2: Tat derivative polypeptide SEQ ID NO:3; TF SIVagmVer, cysteine-rich HIV-1, C-terminal SIVagmVer (protein)", "chain": "MDPKGEEDQDVSHQDLIKQYRKPRTACNNCYCKKCCFHCYACFLRKGLGITYHAFRTRRKKIASADRIPVPQQSISIRGRDSQTTQESQKKVEEQAKANLRISRKNLGDETRGPVGAGN", "modifications": "Tat derivative polypeptide", "notes": "TF SIVagmVer, cysteine-rich HIV-1, C-terminal SIVagmVer"}}, "key": {"4T1 breast tumors": {"system": "4T1 breast tumors", "experiment": "Kaplan-Meier survival of mice bearing 4T1 breast tumors", "format": "in vivo, mouse", "method": "To determine whether Nani-P2 treatment could extend survival in addition to shrinking primary tumors in mice, treatment protocols using various dosing schedules and routes (SC, IV or IT) of administration of 40 ng Nani-P2 were performed. Cohorts of ten mice per group were followed for length of survival, as assessed by use of the Kaplan-Meier product limit method. As per Columbia University Medical Center Animal Facility regulations, each mouse was euthanized at a mean tumor diameter of approximately 15 mm, or earlier if the mouse became moribund, making one of these two outcomes the defining criteria for fatality."}, "4T1 lung metastases": {"system": "4T1 lung metastases", "experiment": "Detection of 4T1 lung metastases", "format": "in vivo, mouse", "description": "Lungs were examined for 4T1 metastases as previously described (Pulaski B. et al. Cancer Res. 60:2710-2715, 2000). Primary 4T1 tumors that have been established for 2-3 weeks in BALB/c mice metastasize to the lungs in a very large majority of animals. Briefly, mice were sacrificed according to IACUC guidelines established at the start of the trials, the lungs were removed, and tumor nodules on the surface of the lungs were enumerated with the naked eye by two independent investigators blinded to the treatment protocols.\nTo further investigate the efficacy of Nani-P2 against established and metastatic breast cancer, 4T1 cells were injected SC in the abdominal mammary gland of mice and treatment was delayed until such time that the tumors had metastasized to the lungs and averaged 3.5 mm in size (FIG. 8A, day 13), corresponding to a 2.4 cm or stage T2 human breast tumor. Mice were followed for tumor growth (FIG. 8A) and lung metastases (FIG. 8B). […] This corresponded to a less aggressive appearance of primary tumor, as well as lung metastases that were on average much smaller in size (FIG. 8B)."}, "Human monocytes": {"system": "Human monocytes", "experiment": "CD86 expression of human monocytes cultured with Tat derivative", "format": "cell-based", "conditions": "cultured 24-48 hours; fluorescent-labeled CD86; compared with ISS (TLR) or LPS", "method": "Human monocytes were cultured for 24-48 hours with a Tat derivative (Nani-P2), an immunostimulatory sequence (ISS) of a toll-like receptor (TLR) (FIG. 1), or lipopolysaccharide (LPS) (FIG. 2) and the cells were then washed and stained with fluorescent-labeled CD86."}, "4T1 cells": {"system": "4T1 cells", "experiment": "Repeated dosing of Nani-P2 and cyclophosphamide in 4T1 tumor-bearing mice", "format": "in vivo, mouse", "method": "Four groups of 10 BALB/c mice were implanted with 1×10^4 4 T1 cells SC into the mammary fat pad. Treatment was initiated when tumor diameters reached 4-5 mm, on day 10. Control mice were injected IV with PBS at 3 days intervals, while alternating treatment mice received 3 doses of drug every 3 days in rotating 10 day cycles. Tumor burden (tumor size mm^3) was calculated using a standard formula. CY (cyclophosphamide alone) mice were injected IP weekly with 80 mg/kg per mouse beginning on day 10. Cy/Nani-P2 (cyclophosphamide first followed by Nani-P2) mice were first injected IP with cyclophosphamide (80 mg/kg) at 3 days intervals for three doses starting at day 10 and then injected IV with Nani-P2 (40 ng) at 3 days intervals for three doses in rotation. The cycle of 3 doses of CY followed by 3 doses of Nani-P2 was repeated until day 50. Nani-P2/CY (Nani-P2 first followed by cyclophosphamide) mice were first injected IV with Nani-P2 (40 ng) at 3 day intervals for 3 doses starting on day 10 and then injected i.p. with cyclophosphamide at 3 day intervals in rotation. The cycle of 3 doses of Nani-P2 followed by 3 doses of CY was repeated until day 50."}, "[1]": {"experiment": "Toxicity observed in treated mice", "format": "in vivo, mouse", "conditions": "SC or IV 40 ng, multiple trials, multiple dosing schedules"}, "4T1 breast tumor": {"system": "4T1 breast tumor", "experiment": "4T1 primary breast tumor growth in BALB/c mice", "format": "in vivo, mouse", "method": "BALB/c mice were injected (SC) with 1×10^4 4 T1, 1×10^5 TS/A or 2×10^5 SM1 cells, respectively, in the left mammary pad on day 0. […] The control group received PBS injection. […] Tumor burden (tumor volume) was measured and recorded three times weekly. Animals were sacrificed when tumors reached a volume of 15 mm in diameter and the tumors harvested and weighed.\nThe therapeutic effect of systemic administration of synthetic, Tat-derived compositions in murine models of breast cancer was investigated. […]"}, "IFN-γ": {"system": "IFN-γ", "experiment": "ELISA analysis of IFN-γ production by immune spleen cells of 4T1 tumor-bearing mice", "format": "in vivo, mouse", "method": "Splenocyte secretion of IFN-γ was assessed by an OptEIA™ ELISA kit (BD Biosciences). Briefly, spleen cells (1×10^5/well) from 4T1 tumor-bearing mice were cultured with or without 5×10^3/well mitomycin C (50 μg/ml)-treated 4T1 cells (used to provide tumor antigens) in DMEM at a 20:1 E:T (effector:[…]) in 96-well plates. Supernatants were collected after 72 hr and kept frozen at −80° C. until analysis without loss of activity. IFN-γ was measured in cell-free supernatants of duplicate wells by ELISA according to the manufacturer's instructions. Tumor-specific IFN-γ production was calculated by subtracting the background values measured in supernatants of spleen cells cultured with medium alone and optical density (OD) values were converted to pg/ml amounts of IFN-γ using a recombinant IFN-γ standard curve. Stimulation index (SI) was calculated as the ratio of IFN-γ in stimulated versus control cultures.\nTo determine whether cytotoxic T-lymphocytes play a role in tumor rejection induced by Nani-P2 therapy, an IFN-γ ELISA assay (FIG. 7) was performed to compare spleen cells of 4T1 tumor-bearing mice treated either without (Control) or with Nani-P2 (FIG. 7). Spleens were removed under sterile conditions and prepared as described elsewhere (duPre'S. et al. Exp. Mol. Path. 85:174-188, 2008). Briefly, spleens were homogenized and splenocytes, as a rich source of systemic cytolytic T cells and APCs, were co-cultured with mitomycin C-treated 4T1 stimulator cells to induce recall immune responses. Control wells were cultured with medium alone."}, "[2]": {"conditions": "Nani-P2 alternating with cyclophosphamide"}}, "note": "Entries after “also recorded” stand apart in the source; their conditions may differ."}
{"molecule": "B1", "values": [{"measurement": "survival, intratumoral administration", "setting": "4T1 breast tumors; 40 ng IT, three weekly cycles, tumors established fourteen days", "value": "slightly inferior to SC administration"}, {"measurement": "survival at day 47", "setting": "4T1 breast tumors; 40 ng IV, three weekly cycles, tumors established fourteen days, p<0.005", "value": 60, "unit": "%"}, {"measurement": "treated mice still alive at day 48", "setting": "4T1 breast tumors; 40 ng SC, 4 doses over 21 days from tumor implant, p<0.001", "value": 35, "unit": "%"}, {"measurement": "survival at day 47", "setting": "4T1 breast tumors; 40 ng SC, three weekly cycles, tumors established fourteen days, p<0.05", "value": 20, "unit": "%"}, {"measurement": "survival versus control mice", "setting": "4T1 breast tumors; 4T1 model", "value": "increased survival compared with control mice"}, {"measurement": "tumor growth inhibition and survival benefits, extension past the last dosing", "setting": "4T1 breast tumors; established 4T1 tumors, treated intravenously", "value": "at least 36 days"}, {"measurement": "survival versus controls at day 42", "setting": "4T1 breast tumors; four doses 40 ng SC from day 0", "value": "statistically significant better survival over controls"}, {"measurement": "survival benefit versus control, IV", "setting": "4T1 breast tumors; three weekly doses 40 ng IV, therapy delayed until day 13/14, day 47", "value": "very highly statistically significant benefit to survival; also recorded: highly statistically significant"}, {"measurement": "survival benefit versus control, SC", "setting": "4T1 breast tumors; three weekly doses 40 ng SC into draining lymph nodes, therapy delayed until day 13, day 47", "value": "statistically significant"}, {"measurement": "lung metastases versus controls", "setting": "4T1 lung metastases; 4T1 model", "value": "significantly inhibited the development of spontaneous 4T1 lung metastases; also recorded: dramatic reduction in the visible number of lung metastases"}, {"measurement": "average number of grossly visible tumor nodules in the lungs", "setting": "4T1 lung metastases; treated IV, treatment delayed to day 13, p<0.01", "value": "seven"}, {"measurement": "expression of CD86", "setting": "Human monocytes", "value": "higher expression of CD86 than either ISS (TLR) or LPS"}, {"measurement": "mice in partial remission at day 50", "setting": "4T1 cells; [2]", "value": "9/10"}, {"measurement": "mice in total remission at day 50", "setting": "4T1 cells; [2]", "value": "3/10"}, {"measurement": "survival benefit versus weekly cyclophosphamide", "setting": "4T1 cells; Nani-P2 bolus treatment alternating with cyclophosphamide, p=0.0001", "value": "highly statistically significant"}, {"measurement": "toxicity", "setting": "[1]", "value": "no toxicity was observed"}, {"measurement": "4T1 tumor volume difference versus control, 4 ng", "setting": "4T1 breast tumor; 4 ng per mouse, four times over 21 days, p<0.1 as printed", "value": "highly significant"}, {"measurement": "mice in complete remission, disease-free at 50 days", "setting": "4T1 breast tumor; 40 ng IV weekly over three weeks from day 14", "value": "one animal underwent a complete remission; also recorded: One of 10"}, {"measurement": "mice with regression of tumor at the initial treatment on day 14", "setting": "4T1 breast tumor; 40 ng IV, established 4T1 tumors", "value": "7/10"}, {"measurement": "4T1 tumor volume difference versus control, 40 ng", "setting": "4T1 breast tumor; 40 ng per mouse, four times over 21 days, p<0.01", "value": "highly significant"}, {"measurement": "primary tumor burden of established 4T1 tumors versus PBS control", "setting": "4T1 breast tumor; 40 ng weekly for three weeks beginning at day 14 (IV), p<0.01", "value": "statistically significant benefit in primary tumor suppression; also recorded: highly significant"}, {"measurement": "4T1 tumor volume difference versus control starting at day 22", "setting": "4T1 breast tumor; 400 ng SC days 0, 7, 14, 21, p<0.01", "value": "highly significant"}, {"measurement": "4T1 tumor burden versus PBS control", "setting": "4T1 breast tumor; 400 ng partially-purified, SC, days 0, 7, 14, 21 (Nani-P3 also 2 μg), from day 15, p<0.05", "value": "significantly reduced tumor burden; also recorded: significant"}, {"measurement": "average decrease of 4T1 tumor burden at maximal effect", "setting": "4T1 breast tumor; SC therapy begun on day 13, tumors about 5 mm in diameter", "value": 52, "unit": "%"}, {"measurement": "average shrinkage of 4T1 tumor burden", "setting": "4T1 breast tumor; SC therapy initiated on day 0 after tumor cell injection", "value": 53, "unit": "%"}, {"measurement": "effect of increasing the dose to 400 ng and 2 μg", "setting": "4T1 breast tumor; SC, compared with 40 ng, data not shown", "value": "no further anti-tumor efficacy"}, {"measurement": "difference in primary tumor burden between Nani-P2 and Nani-P1-treated tumors", "setting": "4T1 breast tumor; day 21 (final dosing), 400 ng SC, p<0.01", "value": 18, "unit": "mm^3"}, {"measurement": "dose giving significant 4T1 tumor growth inhibition", "setting": "4T1 breast tumor; highly-purified, SC", "value": "≤ 0.4", "unit": "ng"}, {"measurement": "4T1 breast tumor growth inhibitory effect, dose relation", "setting": "4T1 breast tumor; highly-purified, SC, 0.4 ng to 40 ng per dose", "value": "dose-dependent"}, {"measurement": "IFN-γ production of spleen cells versus control mice", "setting": "IFN-γ; 40 ng SC weekly for 4 weeks, spleens day 33, 72 hr culture, all conditions of assay", "value": "significantly (p<0.05*) higher"}, {"measurement": "baseline levels of INF-γ secreted by splenocytes versus PBS control mice", "setting": "IFN-γ; no in vitro restimulation", "value": "8 -fold"}, {"measurement": "stimulation index", "setting": "IFN-γ; tumor stimulators + IL4 + GM-CSF, versus control", "value": 53}]}
